Measurements reported in patent US6774222, “Molecular computing elements, gates and flip-flops” (The United States of America as represented by the …).

How the values were obtained:
[1] = target: T1, Fis (Factor for Inversion Stimulation) (Escherichia coli, UniProt P0A6R3 P0A6R3:1-98); assay: EMSA; double shift; both sites bound simultaneously; up to 2200 nM Fis, 1 nM DNA; conditions: chain copies: 2 (dimer, stated); label: 5' biotin; self-complementary linear duplex
Protocol: (§1) FIG. 9 illustrates the mobility shift experiments for 11 and 7 base pair overlapping and 23 base pair separated Fis sites. Each lane contains increasing concentrations of Fis protein, beginning with no Fis, Fis diluted 1 to 64, etc. The 1:1 dilution is at 2200 nM Fis. This concentration was chosen intentionally so that with 1 nM DNA per reaction, the protein/DNA ratio is 2-fold higher than that needed to strongly shift DNA containing the 8.9 bit wild-type hin distal Fis site (Bruist et al. (1987) *Genes Dev.* 1: 762–772). Marker lanes (M) contain 10 ng of biotinylated […] hinfI digested DNA standards (Life Technologies, Inc.). Sizes are indicated in bp. The lowest band in most lanes of the figure is single-stranded oligonucleotide DNA. In the "Separated 23" experiment, at high concentrations, Fis proteins are apparently able to capture the single-stranded DNA when it has folded into a hairpin. This produces a faint band near the 100 bp marker.

[2] = target: T1, Fis (Factor for Inversion Stimulation); assay: EMSA; single shift only, no doubly shifted band up to 2200 nM Fis with 1 nM DNA; sites bound mutually exclusively; conditions: chain copies: 2 (dimer, stated); label: 5' biotin; self-complementary linear duplex
Protocol: as §1

T1 sequence (P0A6R3 whole entry, one chain of several): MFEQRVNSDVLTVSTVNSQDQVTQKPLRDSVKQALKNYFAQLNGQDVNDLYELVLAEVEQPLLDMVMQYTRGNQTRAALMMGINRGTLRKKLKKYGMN

B1: separated 23 Fis sites (dsDNA)
DNA 1: GGAATTCTTTGCTCAAAATTTGATCAGGATCCTGATCAAATTTTGAGCAAAGAATTCC
DNA 2: B1 DNA 1
**Q.** Does B1 bind [1]?
**A.** binds

B2: overlap 11 Fis sites (dsDNA)
DNA 1: TATTCTTTGCTCAAAATTTGATCAAATTTTGAGCAAAGAATA
DNA 2: B2 DNA 1
**Q.** Does B2 bind [2]?
**A.** binds

B3: overlap 7 Fis sites (dsDNA)
DNA 1: AGGCTTTTGCTCAAAGTTTAAACTTTGAGCAAAAGCCT
DNA 2: B3 DNA 1
**Q.** Does B3 bind [2]?
**A.** binds
